Assay [1] concerns the target BtuC2D2 (E. coli vitamin B12 ABC transporter, core transporter: ATPase + permease) (E. coli) (UniProt P06609).
The target is the same in assay [2]. The assay can be described thus: SPR; fresh (naive) His-BtuC2D2 (1500-2000 RU) immobilised on a Ni-NTA chip, apo FLAG-BtuF injected at 0.1-2 uM; Biacore T200, 25 °C, 50 mM Tris-HCl pH 7.5, 150 mM NaCl, 0.1% LDAO, 15 uL/min.
Assay [3] has the same target. As to the kind of experiment: SPR; His-BtuC2D2 that had worked (100 uM ATP, 1 mM MgCl2) for 7 hours, nucleotides removed, immobilised on a Ni-NTA chip; apo FLAG-BtuF injected at 0.1-2 uM; 25 °C, 50 mM Tris-HCl pH 7.5, 150 mM NaCl, 0.1% LDAO. For orientation: In SPR one partner is held on a chip, and binding of the other changes the refractive index at the surface.

Chain of UniProt P06609 (P06609 whole entry, chain 1 of 2): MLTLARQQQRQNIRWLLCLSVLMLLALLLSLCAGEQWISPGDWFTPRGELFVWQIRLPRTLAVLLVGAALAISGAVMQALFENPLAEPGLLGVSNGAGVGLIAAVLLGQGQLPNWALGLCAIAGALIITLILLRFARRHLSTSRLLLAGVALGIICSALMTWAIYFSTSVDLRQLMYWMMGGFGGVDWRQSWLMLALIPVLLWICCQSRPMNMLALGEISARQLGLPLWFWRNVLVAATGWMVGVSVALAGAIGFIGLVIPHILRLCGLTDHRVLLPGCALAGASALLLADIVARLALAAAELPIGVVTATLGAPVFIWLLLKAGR
Chain of UniProt P06609 (P06611 whole entry, chain 2 of 2, further chain): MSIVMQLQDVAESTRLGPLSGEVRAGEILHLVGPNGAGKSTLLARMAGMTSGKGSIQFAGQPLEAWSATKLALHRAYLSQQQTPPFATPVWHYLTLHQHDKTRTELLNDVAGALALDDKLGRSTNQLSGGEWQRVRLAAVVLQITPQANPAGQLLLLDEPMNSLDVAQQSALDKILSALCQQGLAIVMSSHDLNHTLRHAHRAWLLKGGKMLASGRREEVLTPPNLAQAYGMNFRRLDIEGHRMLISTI

B1: BtuF, substrate binding protein (SBP) of the vitamin B12 transport system, FLAG-tagged (natural protein)
chain: APRVITLSPANTELAFAAGITPVGVSSYSDYPPQAQKIEQVSTWQGMNLERIVALKPDLVIAWRGGNAERQVDQLASLGIKVMWVDATSIEQIANALRQLAPWSPQPDKAEQAAQSLLDQYAQLKAQYADKPKKRVFLQFGINPPFTSGKESIQNQVLEVCGGENIFKDSRVPWPQVSREQVLARSPQAIVITGGPDQIPKIKQYWGEQLKIPVIPLTSDWFERASPRIILAAQQLCNALSQVD
By Kd is commonly meant the constant that tells how readily two partners part at equilibrium. The term koff denotes the rate constant with which the complex falls apart. The kon is a measure of how fast the partners come together. Regarding B1, the uptake rate of 57Co vitamin B12 into proteoliposomes, BtuC2D2 that had worked 7 hours against its fresh precursor in assay [1] was found to be 60%. For the same molecule, in assay [2], the Kd turned out to be 0.036 nM, the koff was 1.2e-05 s⁻¹ and the kon was determined as 280000 M⁻¹ s⁻¹. Moreover, in assay [3], the Kd is 0.037 nM, the improvement of BtuF binding of worked over fresh BtuC2D2 fell in the range of 35 to 60%, the koff was 1.1e-05 s⁻¹ and the kon turned out to be 290000 M⁻¹ s⁻¹.

These data come from article PMC4765350.
